Experimental data: patent US20210113615A1 (LUDWIG INSTITUTE FOR CANCER RESEARCH, published 2021)
Where two headings read alike, the source gives them in different places.

Assays:
[1] = target: T1, Bcl-2 (BCL-2 sequence as tested in Example 5) (Homo sapiens (Human), UniProt P10415 1-207); assay: SPR, Biacore 8K; Bcl-2 immobilized, Des3 variant injected in serial dilutions
T1 construct: It was immobilized in SPR
Description: (§1) Affinity (nM) values were calculated by Surface plasmon resonance (SPR) data on a Biacore 8K device.

[2] = target: T2, Bcl-XL (B-cell lymphoma-extra-large), wildtype sequence as tested (human, UniProt Q07817 1-209); assay: SPR, LD3:Bcl-XL binding interaction, sensorgrams with fitted curves
T2 construct: It is shorter than full-length Bcl-xL: E96 of the wildtype numbering stands at position 56; Bcl-XL was immobilized in SPR; also called Protein B

[3] = target: T2, Bcl-XL (B-cell lymphoma-extra-large), …; assay: SPR, Biacore 8K; Bcl-xL immobilized, Des3 variant injected in serial dilutions
Description: as §1

[4] = target: T2, Bcl-XL (B-cell lymphoma-extra-large), …
[5] = target: T1, Bcl-2 (BCL-2 sequence as tested in …); assay: not stated here (heading in the sequence table); target Bcl-2 (first of the two values, 'respectively')
[6] = target: T2, Bcl-XL (B-cell lymphoma-extra-large), …; assay: method not stated for this value (Example 1); Example 1, binder named 1LE4A; approximate value, method not stated

T2 sequence (Q07817 other isoform, or with tags, fused parts or gaps limits assumed): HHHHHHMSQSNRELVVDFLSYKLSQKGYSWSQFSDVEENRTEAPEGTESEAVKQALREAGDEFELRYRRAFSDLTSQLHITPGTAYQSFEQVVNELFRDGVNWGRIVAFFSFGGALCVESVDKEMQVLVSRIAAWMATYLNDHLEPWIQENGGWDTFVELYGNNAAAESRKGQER
T1 sequence (P10415 1-207 limits assumed): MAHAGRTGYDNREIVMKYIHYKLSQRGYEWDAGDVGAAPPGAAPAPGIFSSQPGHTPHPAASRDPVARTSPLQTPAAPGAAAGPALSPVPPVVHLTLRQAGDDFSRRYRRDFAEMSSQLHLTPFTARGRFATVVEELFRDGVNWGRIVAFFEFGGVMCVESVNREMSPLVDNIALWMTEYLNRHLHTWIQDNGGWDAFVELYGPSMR

Row | Binder | Kd [1] | Kd [2] | Kd [3] | Kd [4] | Kd [5] | Kd [6]
1 | LD3 (lead design 3: Bcl-XL binder designed on human apolipoprotein E4, PDB ID 1LE4 chain A) (designed binder, No single sentence states these identities; also called Des3; DES3) HHHHHHQRWELALGRFLEYLSWVSTLSEQVQEELLSSQVTQELRALMDETMKELKAYKSELEEQLTPVAEETRARLSKELQAAQARLGADMEDVRGRLVQYRGEVQAMLGQSTEELRVRLASHLIALQLRLIGDAFDLQKRLAVYQAGA | 0.8 nM | ~4 pM | 4 pM | 4 pM | 0.8 nM | ~0.4 nM
2 | Des3a (slightly weaker affinity binder, GLU124ALA) (designed binder) QRWELALGRFLAYLSWVSTLSEQVQEELLSSQVTQELRALMDETMKELKAYKSELEEQLTPVAEETRARLSKELQAAQARLGADMEDVRGRLVQYRGEVQAMLGQSTEELRVRLASHLIALQLRLIGDAFDLQKRLAVYQAGA | 16.8 nM | – | – | – | – | –
3 | Des3c (weakest affinity Des3 binder, ASP240ALA) (designed binder) QRWELALGRFLEYLSWVSTLSEQVQEELLSSQVTQELRALMDETMKELKAYKSELEEQLTPVAEETRARLSKELQAAQARLGADMEDVRGRLVQYRGEVQAMLGQSTEELRVRLASHLIALQLRLIGAAFDLQKRLAVYQAGA | 147 nM | – | – | – | – | –
4 | Des3b (medium affinity binder, LEU235ALA) (designed binder) QRWELALGRFLEYLSWVSTLSEQVQEELLSSQVTQELRALMDETMKELKAYKSELEEQLTPVAEETRARLSKELQAAQARLGADMEDVRGRLVQYRGEVQAMLGQSTEELRVRLASHLIALQARLIGDAFDLQKRLAVYQAGA | 64.1 nM | – | – | – | – | –
